Data taken from patent publication US20120121596A1 (published 2012).
Where a chain is given by its changes, count along the chain named.

B1: DL11 (mIgG2A) (bispecific antibody, V domains shown)
VH: EVQLVESGGGLVQPGGSLRLSCAASGFTLSGDWIHWVRQAPGKGLEWLGEISAAGGYTDYADSVKGRFTISADTSKNTAYLQMNSLRAEDTAVYYCARESRVSFEAAMDYWGQGTLVTVSS
VL: DIQMTQSPSSLSASVGDRVTITCRASQDLATDVAWYQQKPGKAPKLLIYSASFLYSGVPSRFSGSGSGTDFTLTISSLQPEDFATYYCQQSEPEPYTFGQGTKVEIKR
B2: D1.5-103 (mIgG2A) (bispecific antibody, V domains shown)
VH: B1 VH with L29F, S30T, D32N, L48V, A53P, A54S, F104Y
VL: DIQMTQSPSSLSASVGDRVTITCRASQALGDSENGYADVAWYQQKPGKAPKLLIYEGSSLYSGVPSRFSGSGSGTDFTLTISSLQPEDFATYYCQQAAPSPYTFGQGTKVEIKR
B3: D1.5-103 (phage-displayed Fab clone) (Fab, V domains shown)
VH: B1 VH with L29F, S30T, D32N, L48V, A53P, A54S, F104Y
VL: B2 VL
notes: EGFR/HER3 clone
B4: D1.5-113 (phage-displayed Fab clone) (Fab, V domains shown)
VH: B1 VH with L29F, S30T, D32N, L48V, A53P, A54S, F104Y
VL: DIQMTQSPSSLSASVGDRVTITCRASQSLLASHDGTPWVAWYQQKPGKAPKLLIYDASYLYSGVPSRFSGSGSGTDFTLTISSLQPEDFATYYCQQSTFAPYTFGQGTKVEIKR
notes: EGFR/HER3 clone
B5: D1.5-100 (mIgG2A) (bispecific antibody, V domains shown)
VH: B1 VH with L29F, S30T, D32N, L48V, A53P, A54S, F104Y
VL: B1 VL
notes: also called anti-EGFR/HER3 antibody D1.5-100
B6: D1.5-201-3 (phage-displayed Fab clone) (Fab, V domains shown)
VH: B1 VH with L29F, S30T, D32N, L48V, A53P, A54S, F104Y
VL: DIQMTQSPSSLSASVGDRVTITCRASQSLWAAYFAPVAWYQQKPGKAPKLLIYDGSYLYSGVPSRFSGSGSGTDFTLTISSLQPEDFATYYCQQRLPSPYTFGQGTKVEIKR
B7: DL3-11f (antibody, V domains shown)
VH: B1 VH with L48V, R101K
VL: B1 VL with D28N, L29I
B8: D1.5-113 (mIgG2A) (bispecific antibody, V domains shown)
VH: B1 VH with L29F, S30T, D32N, L48V, A53P, A54S, F104Y
VL: B4 VL
B9: D1.5-116 (phage-displayed Fab clone) (Fab, V domains shown)
VH: B1 VH with L29F, S30T, D32N, L48V, A53P, A54S, F104Y
VL: B1 VL with D28A, L29I, T31S
notes: EGFR/HER3 clone
B10: D1.5-116 (mIgG2A) (bispecific antibody, V domains shown)
VH: B1 VH with L29F, S30T, D32N, L48V, A53P, A54S, F104Y
VL: B1 VL with D28A, L29I, T31S
B11: D1.5-122 (mIgG2A) (bispecific antibody, V domains shown)
VH: B1 VH with L29F, S30T, D32N, L48V, A53P, A54S, F104Y
VL: B1 VL with D28N, L29I, T31S, F53S, E92D
B12: D1.5-115 (phage-displayed Fab clone) (Fab, V domains shown)
VH: B1 VH with L29F, S30T, D32N, L48V, A53P, A54S, F104Y
VL: B1 VL with D28E, L29I, A30F, T31P, F53S, S91A, E92A, E94T
notes: EGFR/HER3 clone
B13: D1.5-121 (phage-displayed Fab clone) (Fab, V domains shown)
VH: B1 VH with L29F, S30T, D32N, L48V, A53P, A54S, F104Y
VL: B1 VL with L29V, A30G, T31S, V33L, F53Y, E92D
notes: EGFR/HER3 clone
B14: D1.5-115 (mIgG2A) (bispecific antibody, V domains shown)
VH: B1 VH with L29F, S30T, D32N, L48V, A53P, A54S, F104Y
VL: B1 VL with D28E, L29I, A30F, T31P, F53S, S91A, E92A, E94T
B15: D1.5-121 (mIgG2A) (bispecific antibody, V domains shown)
VH: B1 VH with L29F, S30T, D32N, L48V, A53P, A54S, F104Y
VL: B1 VL with L29V, A30G, T31S, V33L, F53Y, E92D
B16: DL11b (bispecific antibody, V domains shown)
VH: B1 VH
VL: B1 VL with D28N, L29I
B17: DL3-11b (antibody, V domains shown)
VH: B1 VH with R101K
VL: B1 VL with D28N, L29I
notes: also called DL3-11fb
B18: D1.5-201-2 (phage-displayed Fab clone) (Fab, V domains shown)
VH: B1 VH with L29F, S30T, D32N, L48V, A53P, A54S, F104Y
VL: B6 VL with S26N, L29I, W30A, A31G, F34Y, S56Y, Y57F
B19: D1.5-122 (phage-displayed Fab clone) (Fab, V domains shown)
VH: B1 VH with L29F, S30T, D32N, L48V, A53P, A54S, F104Y
VL: B1 VL with D28N, L29I, T31S, F53S, E92D
notes: EGFR/HER3 clone

Tests used:
[1] = molecular target: HER3 on cells (MCF7 cells; MDA-175 cells) (UniProt P21860 20-1342, limits assumed); assay: cell-based or functional assay
[2] = molecular target: T1, HER3-ECD-Fc (human, UniProt P21860 20-643, limits assumed); assay: competition with 125I-HRG for HER3-ECD-Fc captured on anti-human antibody plates, antibody pre-bound, counts as % of control
T1 construct: extracellular domain; also called HER3-FC; HER3-IgG

[3] = molecular target: T2, hEGFR-ECD (human, UniProt P00533 25-645); assay: direct phage ELISA, proteins coated at 2 µg/ml, phage-Fab supernatant, OD450;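 further: specificity test of dual-activity clones, with binding assessed across an antigen panel to check whether each recognises only its cognate target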
T2 construct: extracellular domain

[4] = molecular target: T3, BSA (bovine, UniProt P02769); assay: as above
T3 construct: also called bovine serum albumin

[5] = molecular target: T4, HER4-ECD-Fc (human, UniProt Q15303 26-651, limits assumed); assay: as above
T4 construct: extracellular domain
T4 sequence (looked up): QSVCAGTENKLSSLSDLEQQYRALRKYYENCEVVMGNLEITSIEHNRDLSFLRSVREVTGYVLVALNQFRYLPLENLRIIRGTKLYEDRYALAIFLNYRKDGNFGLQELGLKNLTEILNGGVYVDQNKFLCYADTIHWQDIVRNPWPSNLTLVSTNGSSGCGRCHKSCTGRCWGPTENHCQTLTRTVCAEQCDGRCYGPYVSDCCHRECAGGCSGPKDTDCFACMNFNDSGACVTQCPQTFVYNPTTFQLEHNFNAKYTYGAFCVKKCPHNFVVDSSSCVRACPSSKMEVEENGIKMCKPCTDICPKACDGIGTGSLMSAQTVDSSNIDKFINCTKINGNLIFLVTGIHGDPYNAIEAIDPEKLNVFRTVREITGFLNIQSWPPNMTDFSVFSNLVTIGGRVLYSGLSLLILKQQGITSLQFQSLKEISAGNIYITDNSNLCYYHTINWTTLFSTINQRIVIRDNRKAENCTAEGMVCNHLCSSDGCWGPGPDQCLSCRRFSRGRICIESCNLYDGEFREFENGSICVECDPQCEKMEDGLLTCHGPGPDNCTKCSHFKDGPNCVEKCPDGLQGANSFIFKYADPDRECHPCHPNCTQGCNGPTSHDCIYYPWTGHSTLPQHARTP

[6] = molecular target: T5, Erbitux; assay: as above
T5 construct: also called cetuximab; C225; not shown: the constant regions

[7] = molecular target: T6, HER2-ECD (human, UniProt P04626 23-652); assay: as above
T6 construct: extracellular domain

[8] = molecular target: T1, HER3-ECD-Fc; assay: as above
[9] = molecular target: T2, hEGFR-ECD; assay: phage IC50 (solution competition ELISA), compared to D1.5-201
[10] = molecular target: T6, HER2-ECD; assay: as above
[11] = molecular target: HER3 (form not given) (human, UniProt P21860 20-643, limits assumed); assay: affinity maturation of DL11

T3 sequence (P02769 25-607 limits assumed): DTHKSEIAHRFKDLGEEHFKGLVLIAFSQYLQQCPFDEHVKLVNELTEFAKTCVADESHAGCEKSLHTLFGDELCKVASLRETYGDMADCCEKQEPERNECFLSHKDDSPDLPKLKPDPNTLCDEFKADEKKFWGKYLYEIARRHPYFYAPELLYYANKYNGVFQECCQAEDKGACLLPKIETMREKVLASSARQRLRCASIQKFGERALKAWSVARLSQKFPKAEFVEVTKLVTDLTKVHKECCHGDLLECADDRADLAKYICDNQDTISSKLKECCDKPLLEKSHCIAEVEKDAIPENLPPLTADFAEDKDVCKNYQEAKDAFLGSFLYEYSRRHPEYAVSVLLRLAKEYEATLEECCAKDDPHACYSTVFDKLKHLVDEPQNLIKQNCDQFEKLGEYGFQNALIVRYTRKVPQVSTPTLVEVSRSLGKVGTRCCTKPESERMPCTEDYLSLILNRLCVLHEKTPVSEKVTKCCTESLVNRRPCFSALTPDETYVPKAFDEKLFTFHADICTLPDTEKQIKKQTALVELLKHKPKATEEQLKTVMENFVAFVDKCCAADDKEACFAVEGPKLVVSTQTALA

Binder | binding result [3] | binding result [4] | binding result [5] | binding result [7] | other results
B1 |  |  |  |  | IC50 of inhibition of MDA-175 cell proliferation [1]: 0.8 to 1 µg/mL
B2 |  |  |  |  | IC50 (read off the curve) [2]: ~3 nM
B3 | binds | no binding | no binding | no binding | binding result [6]: no binding
B4 | binds | no binding | no binding | no binding | binding result [8]: binds; binding result [6]: no binding
B5 |  |  |  |  | IC50 (read off the curve) [2]: ~2 nM
B6 |  |  |  |  | binding result [9]: binds; binding result [10]: binds
B7 |  |  |  |  | binding result [11]: binds
B8 |  |  |  |  | binding result [2]: binds
B9 | binds | no binding | no binding | no binding | binding result [8]: binds; binding result [6]: no binding
B10 |  |  |  |  | binding result [2]: binds
B11 |  |  |  |  | IC50 (read off the curve) [2]: ~3 nM
B12 | binds | no binding | no binding | no binding | binding result [8]: binds; binding result [6]: no binding
B13 | binds | no binding | no binding | no binding | binding result [8]: binds; binding result [6]: no binding
B14 |  |  |  |  | binding result [2]: binds
B15 |  |  |  |  | binding result [2]: binds
B16 |  |  |  |  | IC50 of inhibition of MDA-175 cell proliferation [1]: 0.8 to 1 µg/mL
B17 |  |  |  |  | binding result [11]: binds
B18 |  |  |  |  | binding result [9]: binds; binding result [10]: binds
B19 | binds | no binding | no binding | no binding | 
